Entries after “also recorded” stand apart in the source; their conditions may differ.
What was measured:
[1] = tested on: acute bleomycin mouse model; assay: Bleomycin-induced acute lung injury (fibrosis) mouse model; type: in vivo; details: for percentage of lung area affected by fibrosis / fibrosis score (Modified Ashcroft): agent alone, dosed four times between week 1 and week 3, vs anti-GFP; for percentage of lung area affected by fibrosis: FIGS. 10-11; for fibrosis score (Modified Ashcroft): FIGS. 10-12
Description: The acute lung injury (single bleomycin treatment; FIG. 1) and chronic intermittent/low dose bleomycin mouse models (FIG. 2) were used to determine the therapeutic effects of Wnt antagonist and agonist (administered concurrently or sequentially or individually) in combination with or without anti-fibrotic drugs (e.g., pirfenidone and nintedanib) to assess effects on anti-fibrotic and improved respiratory functions (see, e.g., Degryse, A. et al. (2010) Am J Physiol Lung Cell Mol Physiol. 299:442-52). Improvement of fibrosis was observed upon treatment with a WNT agonist, SWAP5 (see, e.g., FIG. 7, FIG. 10). Specifically, bleomycin was administered intratracheally to the mice at day 0, and animals were treated twice weekly with an agonist approach—combination of SWAP5 (FZD1,2,5,7,8 multi-FZD-specific SWAP) and RSPO2 (combo)—for two weeks starting at day 7 until termination at day 21. […] Improvement of fibrosis was also observed upon treatment with a Wnt agonist or the Wnt signaling enhancer RSPO2 alone (FIG. 10).

human AT2 cell organoid [2] = assay: Human AT2 cell organoid growth, CellTiter Glo assay; type: cell-based; details: for human AT2 culture growth: RSPO alone, Wnt signaling inhibitor C59 present
Method: For ex vivo studies, 3D organoid cultures (see, e.g., Zacharias, W. et al. (2018) Nature 555:251-257 and Barkauskas et al. (2017) Development 144:986-997) were constructed by combining primary human lung fibroblasts from healthy, pulmonary fibrosis, or COPD patients with alveolar epithelial cells (AT2 and AEP cells) from patients. Organoids were cultured in SAGM medium with growth factor free Matrigel. The Wnt antagonist and agonist were added in a sequential or concurrent manner to determine the effect on the fibroblast/myofibroblast proliferation, matrix production, alveolar epithelial cell proliferation and AT1/AT2 cell fate trans-differentiation. Alveolar organoids can also be cultured directly from human distal lung cells including purified AT2 cells (Kobayashi et al., (2020) supra).
In all of the AT2 cell organoid experiments, the Wnt signaling inhibitor, C59, was used to prevent endogenous secretion of Wnt ligands. […] AT2 cell organoid growth was assessed with the CellTiter Glo assay.

human AT2 cell organoid [3] = assay: Human AT2 organoid size (diameter, microscopy); type: cell-based; details: in the absence of RSPO; C59 present; FIG. 6
[4] = combination of SWAP5 and RSPO2 (combo), twice weekly day 7 to day 21, FIG. 7

Row | Molecule | percentage of lung area affected by fibrosis [1] | fibrosis score (Modified Ashcroft) [1] | human AT2 culture growth (human AT2 cell organoid [2]) | further results
1 | RSPO2: the Wnt signaling enhancer RSPO2 (R-spondin 2) (protein, UniProt Q6UXX9 22-243, looked up) R-spondin-2: QGNRWRRSKRASYVSNPICKGCLSCSKDNGCSRCQQKLFFFLRREGMRQYGECLHSCPSGYYGHRAPDMNRCARCRIENCDSCFSKDFCTKCKVGFYLHRGRCFDECPDGFAPLEETMECVEGCEVGHWSEWGTCSRNNRTCGFKWGLETRTRQIVKKPVKDTILCPTIAESRRCKMTMRHCPGGKRTPKAKEKRNKKKKRKLIERAQEQHSVFLATDRANQ | reduced the fibrosis score and percentage of lung area affected; also recorded: reduce the area of the lung that is fibrotic | reduced the fibrosis score; also recorded: lower the severity of fibrosis | did not enhance human AT2 culture growth | 
2 | RSPO1: R-spondin 1, of a family of ligands that amplify Wnt signals (protein, UniProt Q2MKA7 21-263, looked up) R-spondin-1: SRGIKGKRQRRISAEGSQACAKGCELCSEVNGCLKCSPKLFILLERNDIRQVGVCLPSCPPGYFDARNPDMNKCIKCKIEHCEACFSHNFCTKCKEGLYLHKGRCYPACPEGSSAANGTMECSSPAQCEMSEWSPWGPCSKKQQLCGFRRGSEERTRRVLHAPVGDHAACSDTKETRRCTVRRVPCPEGQKRRKGGQGRRENANRNLARKESKEAGAGSRRRKGQQQQQQQGTVGPLTSAGPA |  |  | did not enhance human AT2 culture growth | 
3 | SWAP4: FZD4-mono-specific Wnt agonist; anti-FZD antibody with LRP6 binder; heavy/light chains SEQ ID NO: 9 and 10 (antibody) heavy: EVQLVESGGGLVQPGGSLRLSCAASGFTFTSYYISWVRQAPGKGLEWVAEISPYSGSTYYADSVKGRFTISADTSKNTAYLQMNSLRAEDTAVYYCALRARPPIRLHPRGSVMDYWGQGTLVTVSSGGGGSGGGGSGGGGSEVQLVESGGGLVQPGGSLRLSCAASGFNISYYYIHWVRQAPGKGLEWLASIYPSSGYTYYADSVKGRFTISADTSKNTAYLQMNSLRAEDTAVYYCARSSFYWAMDYWGQGTLVTVSSASTKGPSVFPLAPSSKSTSGGTAALGCLVKDYFPEPVTVSWNSGALTSGVHTFPAVLQSSGLYSLSSVVTVPSSSLGTQTYICNVNHKPSNTKVDKKVEPKSCDKTHTCPPCPAPEAAGGPSVFLFPPKPKDTLMISRTPEVTCVVVDVSHEDPEVKFNWYVDGVEVHNAKTKPREEQYNSTYRVVSVLTVLHQDWLNGKEYKCKVSNKALGAPIEKTISKAKGQPREPQVYTLPPSREEMTKNQVSLTCLVKGFYPSDIAVEWESNGQPENNYKTTPPVLDSDGSFFLYSKLTVDKSRWQQGNVFSCSVMHEALHNHYTQKSLSLSPGK light: DIQMTQSPSSLSASVGDRVTITCRASQDVSTAVAWYQQKPGKAPKLLIYSASFLYSGVPSRFSGSGSGTDFTLTISSLQPEDFATYYCQQSYTTPPTFGQGTKVEIKGGGGSGGGGSGGGGSDIQMTQSPSSLSASVGDRVTITCRASQSVSSAVAWYQQKPGKAPKLLIYSASSLYSGVPSRFSGSRSGTDFTLTISSLQPEDFATYYCQQSYAAYLFTFGQGTKVEIKRTVAAPSVFIFPPSDEQLKSGTASVVCLLNNFYPREAKVQWKVDNALQSGNSQESVTEQDSKDSTYSLSSTLTLSKADYEKHKVYACEVTHQGLSSPVTKSFNRGEC |  |  |  | human AT2 cell organoid growth as organoid size (diameter) (human AT2 cell organoid [3]): expand AT2 organoids; self-renewal and expansion of human AT2 cells (human AT2 cell organoid [2]; summary of organoid results): promotes the self-renewal and expansion of human AT2 cells
4 | SWAP6: FZD1,2,7-specific Wnt agonist; anti-FZD antibody with LRP6 VHH on light chain N-terminus; SEQ ID NO: 12 and 11 (protein) chain 1: QVQLQQWGAGLLKPSETLSLTCAVSGASFSGHYWTWIRQPPGKGLEWIGEIDHTGSTNYEPSLRSRVTISVDTSKNQFSLNLKSVTAADTAVYYCARGGQGGYDWGHYHGLDVWGQGTTVTVSSASTKGPSVFPLAPSSKSTSGGTAALGCLVKDYFPEPVTVSWNSGALTSGVHTFPAVLQSSGLYSLSSVVTVPSSSLGTQTYICNVNHKPSNTKVDKKVEPKSCDKTHTCPPCPAPEAAGGPSVFLFPPKPKDTLMISRTPEVTCVVVDVSHEDPEVKFNWYVDGVEVHNAKTKPREEQYNSTYRVVSVLTVLHQDWLNGKEYKCKVSNKALGAPIEKTISKAKGQPREPQVYTLPPSREEMTKNQVSLTCLVKGFYPSDIAVEWESNGQPENNYKTTPPVLDSDGSFFLYSKLTVDKSRWQQGNVFSCSVMHEALHNHYTQKSLSLSPGK chain 2: DVQLVESGGGLVQAGGSLRLACAGSGRIFAIYDIAWYRHPPGNQRELVAMIRPVVTEIDYADSVKGRFTISRNNAMKTVYLQMNNLKPEDTAVYYCNAKRPWGSRDEYWGQGTQVTVSSGSGSGSYVLTQPPSVSVSPGQTASITCSGDKVGHKYASWYQQKPGQSPVLVIYEDSQRPSGIPVRFSGSNSGNTATLTISGTQAMDEADYYCQAWDSSTDVVFGGGTKLTVLGQPKAAPSVTLFPPSSEELQANKATLVCLISDFYPGAVTVAWKADSSPVKAGVETTTPSKQSNNKYAASSYLSLTPEQWKSHRSYSCQVTHEGSTVEKTVAPTECS |  | caused a trend of reduction in the extent of fibrosis |  | 
5 | SWAP5: FZD-1,2,5,7,8-specific Wnt agonist; anti-FZD antibody with LRP6 VHH on light chain N-terminus; SEQ ID NO: 1 and 2 (protein) chain 1: EVQLVQSGAEVKKPGASVKVSCKASGYTFTSYGISWVRQAPGQGLEWMGWISAYNGNTNYAQKLQGRVTMTTDTSTSTAYMELRSLRSDDTAVYYCASSKEKATYYYGMDVWGQGTTVTVSSASTKGPSVFPLAPSSKSTSGGTAALGCLVKDYFPEPVTVSWNSGALTSGVHTFPAVLQSSGLYSLSSVVTVPSSSLGTQTYICNVNHKPSNTKVDKKVEPKSCDKTHTCPPCPAPEAAGGPSVFLFPPKPKDTLMISRTPEVTCVVVDVSHEDPEVKFNWYVDGVEVHNAKTKPREEQYNSTYRVVSVLTVLHQDWLNGKEYKCKVSNKALGAPIEKTISKAKGQPREPQVYTLPPSREEMTKNQVSLTCLVKGFYPSDIAVEWESNGQPENNYKTTPPVLDSDGSFFLYSKLTVDKSRWQQGNVFSCSVMHEALHNHYTQKSLSLSPGK chain 2: DVQLVESGGGLVQAGGSLRLACAGSGRIFAIYDIAWYRHPPGNQRELVAMIRPVVTEIDYADSVKGRFTISRNNAMKTVYLQMNNLKPEDTAVYYCNAKRPWGSRDEYWGQGTQVTVSSGSGSGQAVVLQEPSLSVSPGGTVTLTCGLSSGSVSTNYYPSWYQQTPGQAPRTLIYYTNTRSSDVPERFSGSIVGNKAALTITGAQPDDESVYFCLLYLGRGIWVFGGGTKLTVLGQPKAAPSVTLFPPSSEELQANKATLVCLISDFYPGAVTVAWKADSSPVKAGVETTTPSKQSNNKYAASSYLSLTPEQWKSHRSYSCQVTHEGSTVEKTVAPTECS | reduced the fibrosis score and percentage of lung area affected; also recorded: reduce the area of the lung that is fibrotic | reduced the fibrosis score; also recorded: lower the severity of fibrosis |  | area (percent) of lung affected by fibrosis [1, 4]: reduction in the degree of fibrosis severity and the area of the lung affected by fibrosis; also recorded: reduce the area of the lung that is fibrotic; fibrosis severity (fibrosis score) [1, 4]: reduction in the degree of fibrosis severity; also recorded: lower the severity of fibrosis

— patent US20240391991A1, “MODULATION OF WNT SIGNALLING IN PULMONARY DISORDERS” (Surrozen Operating, Inc., priority 2021, published 2024)
